Source: patent publication US20190352354A1

Target: commercial Trail (TNF-related apoptosis-inducing ligand, TRAIL) (UniProt P50591)
Test: cell-based or functional assay

Sequence of commercial DR5-Fc fusion protein (R&D Systems) (O14763 52-182): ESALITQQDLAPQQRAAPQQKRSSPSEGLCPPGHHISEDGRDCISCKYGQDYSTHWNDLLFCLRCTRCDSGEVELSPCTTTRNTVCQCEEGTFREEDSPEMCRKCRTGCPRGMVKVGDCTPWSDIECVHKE
Sequence of commercial Trail (TNF-related apoptosis-inducing ligand, TRAIL) (P50591 114-281 limits assumed): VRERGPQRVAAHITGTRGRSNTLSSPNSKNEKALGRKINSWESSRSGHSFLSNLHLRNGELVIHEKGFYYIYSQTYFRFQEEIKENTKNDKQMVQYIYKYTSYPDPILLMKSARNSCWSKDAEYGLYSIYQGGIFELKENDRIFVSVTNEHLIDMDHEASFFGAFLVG

commercial DR5-Fc fusion protein (R&D Systems) (from UniProt O14763 52-182)
EC50 of blocking TRAIL-induced apoptosis of HepG2 cells: 0.0276 µg/mL
EC50 of blocking Trail (at EC90) killing of Jurkat cells, MTS/PMS A490-A630: 0.0718 µg/mL
